{
  "source": "IntAct's records for PubMed 29426014",
  "parents": {"B1": {"name": "Ubiquitin-protein ligase (Homo sapiens), Q05086-1 (parent)", "chain": "MEKLHQCYWKSGEPQSDDIEASRMKRAAAKHLIERYYHQLTEGCGNEACTNEFCASCPTFLRMDNNAAAIKALELYKINAKLCDPHPSKKGASSAYLENSKGAPNNSCSEIKMNKKGARIDFKDVTYLTEEKVYEILELCREREDYSPLIRVIGRVFSSAEALVQSFRKVKQHTKEELKSLQAKDEDKDEDEKEKAACSAAAMEEDSEASSSRIGDSSQGDNNLQKLGPDDVSVDIDAIRRVYTRLLSNEKIETAFLNALVYLSPNVECDLTYHNVYSRDPNYLNLFIIVMENRNLHSPEYLEMALPLFCKAMSKLPLAAQGKLIRLWSKYNADQIRRMMETFQQLITYKVISNEFNSRNLVNDDDAIVAASKCLKMVYYANVVGGEVDTNHNEEDDEEPIPESSELTLQELLGEERRNKKGPRVDPLETELGVKTLDCRKPLIPFEEFINEPLNEVLEMDKDYTFFKVETENKFSFMTCPFILNAVTKNLGLYYDNRIRMYSERRITVLYSLVQGQQLNPYLRLKVRRDHIIDDALVRLEMIAMENPADLKKQLYVEFEGEQGVDEGGVSKEFFQLVVEEIFNPDIGMFTYDESTKLFWFNPSSFETEGQFTLIGIVLGLAIYNNCILDVHFPMVVYRKLMGKKGTFRDLGDSHPVLYQSLKDLLEYEGNVEDDMMITFQISQTDLFGNPMMYDLKENGDKIPITNENRKEFVNLYSDYILNKSVEKQFKAFRRGFHMVTNESPLKYLFRPEEIELLICGSRNLDFQALEETTEYDGGYTRDSVLIREFWEIVHSFTDEQKRLFLQFTTGTDRAPVGGLGKLKMIIAKNGPDTERLPTSHTCFNVLLLPEYSSKEKLKERLLKAITYAKGFGML", "partner": "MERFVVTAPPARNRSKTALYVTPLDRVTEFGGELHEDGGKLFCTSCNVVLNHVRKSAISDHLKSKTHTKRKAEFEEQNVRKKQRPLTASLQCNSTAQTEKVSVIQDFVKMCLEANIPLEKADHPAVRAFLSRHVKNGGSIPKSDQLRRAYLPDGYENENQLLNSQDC"}, "B2": {"name": "Ubiquitin-protein ligase (Homo sapiens), Q05086-1 (parent)", "chain": "B1 chain", "partner": "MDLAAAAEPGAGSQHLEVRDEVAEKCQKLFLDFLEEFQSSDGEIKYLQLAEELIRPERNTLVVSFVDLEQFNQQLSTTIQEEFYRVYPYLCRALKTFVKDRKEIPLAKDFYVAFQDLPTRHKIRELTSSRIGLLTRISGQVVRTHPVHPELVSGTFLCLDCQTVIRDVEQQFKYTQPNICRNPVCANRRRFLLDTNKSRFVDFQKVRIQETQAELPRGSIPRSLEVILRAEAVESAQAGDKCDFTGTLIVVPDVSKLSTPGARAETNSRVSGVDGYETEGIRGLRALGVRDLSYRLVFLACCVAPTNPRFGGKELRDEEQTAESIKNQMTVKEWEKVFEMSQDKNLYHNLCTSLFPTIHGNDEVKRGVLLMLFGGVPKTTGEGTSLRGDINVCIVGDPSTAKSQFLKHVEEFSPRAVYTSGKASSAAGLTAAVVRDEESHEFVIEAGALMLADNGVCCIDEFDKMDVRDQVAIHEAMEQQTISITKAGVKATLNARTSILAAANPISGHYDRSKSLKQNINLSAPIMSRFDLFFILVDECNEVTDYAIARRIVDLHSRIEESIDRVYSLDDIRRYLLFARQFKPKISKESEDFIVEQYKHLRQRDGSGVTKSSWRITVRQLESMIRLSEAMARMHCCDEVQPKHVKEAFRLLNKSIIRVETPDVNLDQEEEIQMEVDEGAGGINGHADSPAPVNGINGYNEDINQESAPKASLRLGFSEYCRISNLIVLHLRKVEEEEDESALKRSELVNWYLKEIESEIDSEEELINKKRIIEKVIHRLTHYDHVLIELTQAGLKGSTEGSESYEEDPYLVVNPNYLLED"}, "B3": {"name": "Ubiquitin-protein ligase (Homo sapiens), Q05086-2 (parent)", "chain": "MKRAAAKHLIERYYHQLTEGCGNEACTNEFCASCPTFLRMDNNAAAIKALELYKINAKLCDPHPSKKGASSAYLENSKGAPNNSCSEIKMNKKGARIDFKDVTYLTEEKVYEILELCREREDYSPLIRVIGRVFSSAEALVQSFRKVKQHTKEELKSLQAKDEDKDEDEKEKAACSAAAMEEDSEASSSRIGDSSQGDNNLQKLGPDDVSVDIDAIRRVYTRLLSNEKIETAFLNALVYLSPNVECDLTYHNVYSRDPNYLNLFIIVMENRNLHSPEYLEMALPLFCKAMSKLPLAAQGKLIRLWSKYNADQIRRMMETFQQLITYKVISNEFNSRNLVNDDDAIVAASKCLKMVYYANVVGGEVDTNHNEEDDEEPIPESSELTLQELLGEERRNKKGPRVDPLETELGVKTLDCRKPLIPFEEFINEPLNEVLEMDKDYTFFKVETENKFSFMTCPFILNAVTKNLGLYYDNRIRMYSERRITVLYSLVQGQQLNPYLRLKVRRDHIIDDALVRLEMIAMENPADLKKQLYVEFEGEQGVDEGGVSKEFFQLVVEEIFNPDIGMFTYDESTKLFWFNPSSFETEGQFTLIGIVLGLAIYNNCILDVHFPMVVYRKLMGKKGTFRDLGDSHPVLYQSLKDLLEYEGNVEDDMMITFQISQTDLFGNPMMYDLKENGDKIPITNENRKEFVNLYSDYILNKSVEKQFKAFRRGFHMVTNESPLKYLFRPEEIELLICGSRNLDFQALEETTEYDGGYTRDSVLIREFWEIVHSFTDEQKRLFLQFTTGTDRAPVGGLGKLKMIIAKNGPDTERLPTSHTCFNVLLLPEYSSKEKLKERLLKAITYAKGFGML", "partner": "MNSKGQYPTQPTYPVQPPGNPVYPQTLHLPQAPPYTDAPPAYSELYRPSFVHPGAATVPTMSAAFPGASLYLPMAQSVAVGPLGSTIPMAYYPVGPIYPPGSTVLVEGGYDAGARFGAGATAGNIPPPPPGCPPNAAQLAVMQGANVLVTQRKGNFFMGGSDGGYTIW"}, "B4": {"name": "Ubiquitin-protein ligase (Homo sapiens), Q05086-3 (parent)", "chain": "MATACKRSGEPQSDDIEASRMKRAAAKHLIERYYHQLTEGCGNEACTNEFCASCPTFLRMDNNAAAIKALELYKINAKLCDPHPSKKGASSAYLENSKGAPNNSCSEIKMNKKGARIDFKDVTYLTEEKVYEILELCREREDYSPLIRVIGRVFSSAEALVQSFRKVKQHTKEELKSLQAKDEDKDEDEKEKAACSAAAMEEDSEASSSRIGDSSQGDNNLQKLGPDDVSVDIDAIRRVYTRLLSNEKIETAFLNALVYLSPNVECDLTYHNVYSRDPNYLNLFIIVMENRNLHSPEYLEMALPLFCKAMSKLPLAAQGKLIRLWSKYNADQIRRMMETFQQLITYKVISNEFNSRNLVNDDDAIVAASKCLKMVYYANVVGGEVDTNHNEEDDEEPIPESSELTLQELLGEERRNKKGPRVDPLETELGVKTLDCRKPLIPFEEFINEPLNEVLEMDKDYTFFKVETENKFSFMTCPFILNAVTKNLGLYYDNRIRMYSERRITVLYSLVQGQQLNPYLRLKVRRDHIIDDALVRLEMIAMENPADLKKQLYVEFEGEQGVDEGGVSKEFFQLVVEEIFNPDIGMFTYDESTKLFWFNPSSFETEGQFTLIGIVLGLAIYNNCILDVHFPMVVYRKLMGKKGTFRDLGDSHPVLYQSLKDLLEYEGNVEDDMMITFQISQTDLFGNPMMYDLKENGDKIPITNENRKEFVNLYSDYILNKSVEKQFKAFRRGFHMVTNESPLKYLFRPEEIELLICGSRNLDFQALEETTEYDGGYTRDSVLIREFWEIVHSFTDEQKRLFLQFTTGTDRAPVGGLGKLKMIIAKNGPDTERLPTSHTCFNVLLLPEYSSKEKLKERLLKAITYAKGFGML", "partner": "B3 partner"}, "B5": {"name": "Ubiquitin-protein ligase (Homo sapiens), Q05086-3 (parent)", "chain": "B4 chain", "partner": "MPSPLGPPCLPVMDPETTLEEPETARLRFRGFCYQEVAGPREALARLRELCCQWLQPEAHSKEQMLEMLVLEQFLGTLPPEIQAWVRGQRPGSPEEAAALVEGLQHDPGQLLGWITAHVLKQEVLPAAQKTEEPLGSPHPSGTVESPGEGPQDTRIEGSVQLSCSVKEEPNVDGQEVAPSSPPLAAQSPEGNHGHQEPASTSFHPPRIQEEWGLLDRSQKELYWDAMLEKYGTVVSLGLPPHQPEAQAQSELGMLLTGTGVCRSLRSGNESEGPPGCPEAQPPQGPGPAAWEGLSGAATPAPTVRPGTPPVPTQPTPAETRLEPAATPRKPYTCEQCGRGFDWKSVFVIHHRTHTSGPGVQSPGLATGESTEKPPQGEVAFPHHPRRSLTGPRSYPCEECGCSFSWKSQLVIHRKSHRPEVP"}, "B6": {"name": "Ubiquitin-protein ligase (Homo sapiens), Q05086-2 (parent)", "chain": "B3 chain", "partner": "B1 partner"}, "B7": {"name": "Ubiquitin-protein ligase (Homo sapiens), Q05086-3 (parent)", "chain": "B4 chain", "partner": "B1 partner"}, "B8": {"name": "Ubiquitin-protein ligase (Homo sapiens), Q05086-2 (parent)", "chain": "B3 chain", "partner": "B5 partner"}, "B9": {"name": "Ubiquitin-protein ligase (Homo sapiens), Q05086-1 (parent)", "chain": "B1 chain", "partner": "B3 partner"}, "B10": {"name": "Ubiquitin-protein ligase (Homo sapiens), Q05086-1 (parent)", "chain": "B1 chain", "partner": "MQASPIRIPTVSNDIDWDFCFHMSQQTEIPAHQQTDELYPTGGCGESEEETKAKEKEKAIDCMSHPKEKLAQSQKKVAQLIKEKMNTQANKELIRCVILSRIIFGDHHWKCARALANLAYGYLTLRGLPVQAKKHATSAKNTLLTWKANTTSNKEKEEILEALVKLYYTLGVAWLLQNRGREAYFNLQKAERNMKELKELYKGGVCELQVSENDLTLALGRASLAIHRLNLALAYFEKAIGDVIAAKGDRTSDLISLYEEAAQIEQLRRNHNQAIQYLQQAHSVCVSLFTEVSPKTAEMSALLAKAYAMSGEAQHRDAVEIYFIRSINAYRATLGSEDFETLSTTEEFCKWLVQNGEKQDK"}, "B11": {"name": "Ubiquitin-protein ligase (Homo sapiens), Q05086-2 (parent)", "chain": "B3 chain"}},
  "data": [
    {"variants_of": "B1", "conditions": "with cgbp1_human CGGBP1, Q9UFW8", "values": [
      {"variant": "C843A", "effect of a mutation on the interaction": "causing an interaction"}
    ]},
    {"variants_of": "B2", "conditions": "with mcm6_human MCM6, Q14566", "values": [
      {"variant": "C843A", "effect of a mutation on the interaction": "with no effect"}
    ]},
    {"variants_of": "B3", "conditions": "with DAZAP2, Q15038-1", "values": [
      {"variant": "C820A", "effect of a mutation on the interaction": "causing an interaction"}
    ]},
    {"variants_of": "B4", "conditions": "with DAZAP2, Q15038-1", "values": [
      {"variant": "C840A", "effect of a mutation on the interaction": "causing an interaction"}
    ]},
    {"variants_of": "B5", "conditions": "with ZNF446, Q9NWS9-2", "values": [
      {"variant": "C840A", "effect of a mutation on the interaction": "causing an interaction"}
    ]},
    {"variants_of": "B6", "conditions": "with cgbp1_human CGGBP1, Q9UFW8", "values": [
      {"variant": "C820A", "effect of a mutation on the interaction": "causing an interaction"}
    ]},
    {"variants_of": "B7", "conditions": "with cgbp1_human CGGBP1, Q9UFW8", "values": [
      {"variant": "C840A", "effect of a mutation on the interaction": "causing an interaction"}
    ]},
    {"variants_of": "B8", "conditions": "with ZNF446, Q9NWS9-2", "values": [
      {"variant": "C820A", "effect of a mutation on the interaction": "causing an interaction"}
    ]},
    {"variants_of": "B9", "conditions": "with DAZAP2, Q15038-1", "values": [
      {"variant": "C843A", "effect of a mutation on the interaction": "causing an interaction"}
    ]},
    {"variants_of": "B10", "conditions": "with TTC23L", "values": [
      {"variant": "C843A", "effect of a mutation on the interaction": "causing an interaction"}
    ]},
    {"variants_of": "B11", "conditions": "with ZNF250, P15622-3", "values": [
      {"variant": "C820A", "effect of a mutation on the interaction": "causing an interaction"}
    ]},
    {"variants_of": "B11", "conditions": "with PAX6, P26367-1", "values": [
      {"variant": "C820A", "effect of a mutation on the interaction": "causing an interaction"}
    ]},
    {"variants_of": "B11", "conditions": "with magac_human MAGEA12, P43365", "values": [
      {"variant": "C820A", "effect of a mutation on the interaction": "with no effect"}
    ]},
    {"variants_of": "B11", "conditions": "with PSMD4, P55036-1", "values": [
      {"variant": "C820A", "effect of a mutation on the interaction": "with no effect"}
    ]},
    {"variants_of": "B11", "conditions": "with PAX5, Q02548-1", "values": [
      {"variant": "C820A", "effect of a mutation on the interaction": "causing an interaction"}
    ]},
    {"variants_of": "B11", "conditions": "with PTCD3, Q96EY7-1", "values": [
      {"variant": "C820A", "effect of a mutation on the interaction": "with no effect"}
    ]},
    {"variants_of": "B11", "conditions": "with ubql2_human UBQLN2, Q9UHD9", "values": [
      {"variant": "C820A", "effect of a mutation on the interaction": "with no effect"}
    ]},
    {"variants_of": "B11", "conditions": "with UBQLN1, Q9UMX0-1", "values": [
      {"variant": "C820A", "effect of a mutation on the interaction": "with no effect"}
    ]},
    {"variants_of": "B11", "conditions": "with herc2_human HERC2, O95714", "values": [
      {"variant": "C820A", "effect of a mutation on the interaction": "causing an interaction"}
    ]}
  ]
}
